# Paper PMC5855135 (Chemical Science, 2017)
# T1: CcpA (SaCcpA) (Staphylococcus aureus Newman) (UniProt P99175)
# T1 sequence: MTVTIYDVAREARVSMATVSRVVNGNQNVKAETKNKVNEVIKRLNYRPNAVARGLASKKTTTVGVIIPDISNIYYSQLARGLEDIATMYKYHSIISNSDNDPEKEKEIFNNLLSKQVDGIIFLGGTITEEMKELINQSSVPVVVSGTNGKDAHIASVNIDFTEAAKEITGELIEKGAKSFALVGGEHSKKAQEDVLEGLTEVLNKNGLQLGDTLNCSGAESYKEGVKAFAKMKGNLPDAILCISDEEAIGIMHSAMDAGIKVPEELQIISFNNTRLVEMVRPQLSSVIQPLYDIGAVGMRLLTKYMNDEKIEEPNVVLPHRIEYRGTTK
# Key:
# [1] = tested on: CcpA2CS (Staphylococcus aureus Newman); test: BLI; conditions: BLI: 25 mM Tris-HNO3, 80 mM NaNO3, 35 mM KNO3, 10 mM Mg(NO3)2, 0.1% Triton X-100, 10% glycerol, 0.1% BSA, 0.01% Tween 20, pH 7.5, 37 C; EMSA: 35 nM DNA in …
# [2] = tested on: CcpA (SaCcpA) (Staphylococcus aureus Newman); test: BLI; conditions: no Ag+; 10 mM Mg2+; BLI: 25 mM Tris-HNO3, 80 mM NaNO3, 35 mM KNO3, 10 mM Mg(NO3)2, 0.1% Triton X-100, 10% glycerol, 0.1% BSA, 0.01% Tween 20, pH 7.5, 37 C; EMSA: 35 nM DNA in …
# [3] = tested on: CcpA2CS (Staphylococcus aureus Newman); test: BLI; conditions: BLI: 25 mM Tris-HNO3, 80 mM NaNO3, 35 mM KNO3, 10 mM Mg(NO3)2, 0.1% Triton X-100, 10% glycerol, 0.1% BSA, 0.01% Tween 20, pH 7.5, 37 C; EMSA: 35 nM DNA in …; remark: listed apart in the source
# [4] = target: T1, CcpA (SaCcpA) (Staphylococcus aureus Newman); test: EMSA; conditions: BLI: 25 mM Tris-HNO3, 80 mM NaNO3, 35 mM KNO3, 10 mM Mg(NO3)2, 0.1% Triton X-100, 10% glycerol, 0.1% BSA, 0.01% Tween 20, pH 7.5, 37 C; EMSA: 35 nM DNA in …
# [5] = target: the molecule itself; test: SEC; size-exclusion chromatography of purified CcpA without Ag+
# [6] = target: the molecule itself; test: SEC; size-exclusion chromatography of purified CcpA pre-incubated with Ag+ (0.6, 1.2, 2.0 molar equivalents; CcpA^2CS with 2.0)
molecule,measurement,setting,value
biotinylated pckA promoter probe,Kd,[1],15.1 nM
same,Kd,[2],16.1 nM
same,Kd,[3],20.7 nM
ACTCGTACCACCAGTCACTATAAAATGTTGTCCTTTCATCAATTAACCTTCCTTTTCAATTATATAGAATGCAATTTATCAACTTTACATAATTGAGACAAGTTGATTATCTTTCCTAATATATATACAATAATAAGAAAATATAACATACAAATCAAAAACTAAAGGGATGTGACGTTAATGAAACTCG (double strand) [proC probe],binding,[4],no binding
"Staphylococcus aureus catabolite control protein A (CcpA), wild type (natural protein, UniProt Q5HF38 1-329, looked up, catabolite control protein A (CcpA) of Staphylococcus aureus; has two cysteines, Cys216 and Cys242; Dimer by SEC without Ag+; written as the protomer for the rows of self-association; Host, tags and limits are in the ESI; also called SaCcpA; WT CcpA) MTVTIYDVAREARVSMATVSRVVNGNQNVKAETKNKVNEVIKRLNYRPNAVARGLASKKTTTVGVIIPDISNIYYSQLARGLEDIATMYKYHSIISNSDNDPEKEKEIFNNLLSKQVDGIIFLGGTITEEMKELINQSSVPVVVSGTNGKDAHIASVNIDFTEAAKEITGELIEKGAKSFALVGGEHSKKAQEDVLEGLTEVLNKNGLQLGDTLNCSGAESYKEGVKAFAKMKGNLPDAILCISDEEAIGIMHSAMDAGIKVPEELQIISFNNTRLVEMVRPQLSSVIQPLYDIGAVGMRLLTKYMNDEKIEEPNVVLPHRIEYRGTTK",stoichiometry N,[5],2
same,stoichiometry N,[6],4
Staphylococcus aureus CcpA C216S mutant (natural protein) MTVTIYDVAREARVSMATVSRVVNGNQNVKAETKNKVNEVIKRLNYRPNAVARGLASKKTTTVGVIIPDISNIYYSQLARGLEDIATMYKYHSIISNSDNDPEKEKEIFNNLLSKQVDGIIFLGGTITEEMKELINQSSVPVVVSGTNGKDAHIASVNIDFTEAAKEITGELIEKGAKSFALVGGEHSKKAQEDVLEGLTEVLNKNGLQLGDTLNSSGAESYKEGVKAFAKMKGNLPDAILCISDEEAIGIMHSAMDAGIKVPEELQIISFNNTRLVEMVRPQLSSVIQPLYDIGAVGMRLLTKYMNDEKIEEPNVVLPHRIEYRGTTK,stoichiometry N,[6],4
Staphylococcus aureus CcpA C242S mutant (natural protein) MTVTIYDVAREARVSMATVSRVVNGNQNVKAETKNKVNEVIKRLNYRPNAVARGLASKKTTTVGVIIPDISNIYYSQLARGLEDIATMYKYHSIISNSDNDPEKEKEIFNNLLSKQVDGIIFLGGTITEEMKELINQSSVPVVVSGTNGKDAHIASVNIDFTEAAKEITGELIEKGAKSFALVGGEHSKKAQEDVLEGLTEVLNKNGLQLGDTLNCSGAESYKEGVKAFAKMKGNLPDAILSISDEEAIGIMHSAMDAGIKVPEELQIISFNNTRLVEMVRPQLSSVIQPLYDIGAVGMRLLTKYMNDEKIEEPNVVLPHRIEYRGTTK,stoichiometry N,[6],4
